Results published in patent US20040170644A1.
No end group written: not given here.

T1: HLA-DR7 molecule (DRB1*0701) (human)
T1 chain 1: not shown
T1 chain 2: not shown

T2: HLA-DRB4*0101 molecule (human)
T2 chain 1: not shown
T2 chain 2: not shown

T3: HLA-DR3 molecule (DRB1*0301) (human)
T3 chain 1: not shown
T3 chain 2: not shown

T4: HLA-DR13 molecule (DRB1*1301) (human)
T4 chain 1: not shown
T4 chain 2: not shown

T5: HLA-DR15 molecule (DRB1*1501) (human)
T5 chain 1: not shown
T5 chain 2: not shown

T6: HLA-DR1 molecule (DRB1*0101) (human)
T6 chain 1: not shown
T6 chain 2: not shown

T7: HLA-DR11 molecule (DRB1*1101) (human)
T7 chain 1: not shown
T7 chain 2: not shown

T8: HLA-DR4 molecule (DRB1*0401) (human)
T8 chain 1: not shown
T8 chain 2: not shown

T9: HLA-DRB5*0101 molecule (human)
T9 chain 1: not shown
T9 chain 2: not shown

T10: HLA-DRB3*0101 molecule (human)
T10 chain 1: not shown
T10 chain 2: not shown


Biological target: T1, HLA-DR7 molecule (DRB1*0701) (human)
Assay: competition ELISA vs biotin-YKL

Binder | IC50
RTLEDLLMGTLGIVC (modifications not checked) [E7 77-91] | 0.055 µM
LRLCVQSTHVDIRTL (modifications not checked) [E7 65-79] | 0.6 µM
TELQTTIHDIILECV (modifications not checked) [E6 24-38] | 1.5 µM
LRREVYDFAFRDLCIVYRDGNPY (modifications not checked) [E6(45-67)] | 2.33 µM
SLYGTTLEQQYNKPL (modifications not checked) [E6 89-103] | 1.5 µM
KCDSTLRLCVQSTHV (modifications not checked) [E7(60-74)] | 0.9 µM
EKQRHLDKKQRFHNIRGRWT (modifications not checked) [E6(121-140)] | 0.2 µM
RHYCYSLYGTTLEQQ (modifications not checked) [E6 84-98] | 3.25 µM
TTLEQQYNKPLCDLL (modifications not checked) [E6 93-107] | 7.75 µM
LRLCVQSTHVDIRTLEDLLMGTL (modifications not checked) [E7(65-87)] | 0.9 µM
MGTLGIVCPICSQKP (modifications not checked) [E7 84-98] | 1.25 µM
QRFHNIRGRWTGRCM (modifications not checked) [E6 130-144] | 0.95 µM
LCVQSTHVDIRTLED (modifications not checked) [E7 67-81] | 1.5 µM
ERPRKLPQLCTELQTTIHDII (modifications not checked) [E6(14-34)] | 0.225 µM

Biological target: T2, HLA-DRB4*0101 molecule (human)
Assay: competition ELISA vs biotin-E2/E168

Binder | IC50
TLHEYMLDLQPETTDLYCYEQ (modifications not checked) [E7(7-27)] | 0.375 µM
PTLHEYMLDLQPETT (modifications not checked) [E7 6-20] | 0.2 µM
MGTLGIVCPICSQKP (modifications not checked) [E7 84-98] | 1.75 µM
QQLLRREVYDFAFRD (modifications not checked) [E6 42-56] | 0.055 µM
MHGDTPTLHEYMLDLQPETT (modifications not checked) [E7(1-20)] | 0.004 µM

Biological target: T3, HLA-DR3 molecule (DRB1*0301) (human)
Assay: competition ELISA vs biotin-MT 2-16

Binder | IC50
LDLQPETTDLYCYEQ (modifications not checked) [E7 13-27] | 3.5 µM
TLHEYMLDLQPETTDLYCYEQ (modifications not checked) [E7(7-27)] | 0.56 µM
QQYNKPLCDLLIRCI (modifications not checked) [E6 97-111] | 1.23 µM
DLYCYEQLNDSSEEEDEIDG (modifications not checked) [E7(21-40)] | 4.6 µM
MHQKRTAMFQDPQERPRKLPQL (modifications not checked) [E6(1-22)] | 3.5 µM
LRLCVQSTHVDIRTLEDLLMGTL (modifications not checked) [E7(65-87)] | 0.45 µM
ERPRKLPQLCTELQTTIHDII (modifications not checked) [E6(14-34)] | 0.55 µM

Biological target: T4, HLA-DR13 molecule (DRB1*1301) (human)
Assay: competition ELISA vs biotin-B1 21-36

Binder | IC50
TLHEYMLDLQPETTDLYCYEQ (modifications not checked) [E7(7-27)] | 7.5 µM
TERVRLVTRHIYNREE (not fully specified) [B1 21-36 (nonbiotinylated)] | 0.33 µM
EKQRHLDKKQRFHNIRGRWT (modifications not checked) [E6(121-140)] | 1.13 µM
DLLIRCINCQKPLCPEEKQRHL (modifications not checked) [E6(105-126)] | 5 µM
FYSKISEYRHYCYSL (modifications not checked) [E6 76-90] | 0.225 µM
QQLLRREVYDFAFRD (modifications not checked) [E6 42-56] | 0.375 µM

Biological target: T5, HLA-DR15 molecule (DRB1*1501) (human)
Assay: competition ELISA vs biotin-A3 152-166

Binder | IC50
TLHEYMLDLQPETTDLYCYEQ (modifications not checked) [E7(7-27)] | 1.77 µM
QQYNKPLCDLLIRCI (modifications not checked) [E6 97-111] | 4 µM
DLYCYEQLNDSSEEEDEIDG (modifications not checked) [E7(21-40)] | 5.3 µM
PTLHEYMLDLQPETT (modifications not checked) [E7 6-20] | 0.675 µM
TELQTTIHDIILECV (modifications not checked) [E6 24-38] | 0.95 µM
LRREVYDFAFRDLCIVYRDGNPY (modifications not checked) [E6(45-67)] | 0.225 µM
SLYGTTLEQQYNKPL (modifications not checked) [E6 89-103] | 0.053 µM
RDLCIVYRDGNPYAV (modifications not checked) [E6 55-69] | 0.055 µM
TTLEQQYNKPLCDLL (modifications not checked) [E6 93-107] | 0.018 µM
DLLIRCINCQKPLCPEEKQRHL (modifications not checked) [E6(105-126)] | 4 µM
LRLCVQSTHVDIRTLEDLLMGTL (modifications not checked) [E7(65-87)] | 0.47 µM
MGTLGIVCPICSQKP (modifications not checked) [E7 84-98] | 0.425 µM
QQLLRREVYDFAFRD (modifications not checked) [E6 42-56] | 3.25 µM
MHGDTPTLHEYMLDLQPETT (modifications not checked) [E7(1-20)] | 0.125 µM
LCVQSTHVDIRTLED (modifications not checked) [E7 67-81] | 0.95 µM
ERPRKLPQLCTELQTTIHDII (modifications not checked) [E6(14-34)] | 0.8 µM

Biological target: T6, HLA-DR1 molecule (DRB1*0101) (human)
Assay: competition ELISA vs biotin-HA 306-318

Binder | IC50
LDLQPETTDLYCYEQ (modifications not checked) [E7 13-27] | 4 µM
QQYNKPLCDLLIRCI (modifications not checked) [E6 97-111] | 0.575 µM
LRLCVQSTHVDIRTL (modifications not checked) [E7 65-79] | 0.75 µM
PTLHEYMLDLQPETT (modifications not checked) [E7 6-20] | 0.75 µM
TELQTTIHDIILECV (modifications not checked) [E6 24-38] | 0.425 µM
SLYGTTLEQQYNKPL (modifications not checked) [E6 89-103] | 0.125 µM
KCDSTLRLCVQSTHV (modifications not checked) [E7(60-74)] | 5 µM
EKQRHLDKKQRFHNIRGRWT (modifications not checked) [E6(121-140)] | 0.125 µM
RDLCIVYRDGNPYAV (modifications not checked) [E6 55-69] | 1.5 µM
DLLIRCINCQKPLCPEEKQRHL (modifications not checked) [E6(105-126)] | 1.75 µM
FYSKISEYRHYCYSL (modifications not checked) [E6 76-90] | 0.125 µM
LRLCVQSTHVDIRTLEDLLMGTL (modifications not checked) [E7(65-87)] | 0.65 µM
QRFHNIRGRWTGRCM (modifications not checked) [E6 130-144] | 0.004 µM
HLDKKQRFHNIRGR (modifications not checked) [E6 124-138] | 0.01 µM
MHGDTPTLHEYMLDLQPETT (modifications not checked) [E7(1-20)] | 2.5 µM
SEYRHYCYSLYGTTL (modifications not checked) [E6 81-95] | 0.01 µM
LCVQSTHVDIRTLED (modifications not checked) [E7 67-81] | 7 µM
ERPRKLPQLCTELQTTIHDII (modifications not checked) [E6(14-34)] | 3.5 µM

Biological target: T7, HLA-DR11 molecule (DRB1*1101) (human)
Assay: competition ELISA vs biotin-HA 306-318

Binder | IC50
LDLQPETTDLYCYEQ (modifications not checked) [E7 13-27] | 3.5 µM
TLHEYMLDLQPETTDLYCYEQ (modifications not checked) [E7(7-27)] | 0.6 µM
PTLHEYMLDLQPETT (modifications not checked) [E7 6-20] | 1.5 µM
LRREVYDFAFRDLCIVYRDGNPY (modifications not checked) [E6(45-67)] | 0.125 µM
KCDSTLRLCVQSTHV (modifications not checked) [E7(60-74)] | 7 µM
EKQRHLDKKQRFHNIRGRWT (modifications not checked) [E6(121-140)] | 0.35 µM
RDLCIVYRDGNPYAV (modifications not checked) [E6 55-69] | 0.25 µM
RHYCYSLYGTTLEQQ (modifications not checked) [E6 84-98] | 7 µM
DLLIRCINCQKPLCPEEKQRHL (modifications not checked) [E6(105-126)] | 5 µM
QRFHNIRGRWTGRCM (modifications not checked) [E6 130-144] | 0.115 µM
QQLLRREVYDFAFRD (modifications not checked) [E6 42-56] | 6 µM
HLDKKQRFHNIRGR (modifications not checked) [E6 124-138] | 0.475 µM
MHGDTPTLHEYMLDLQPETT (modifications not checked) [E7(1-20)] | 1.75 µM
SEYRHYCYSLYGTTL (modifications not checked) [E6 81-95] | 0.725 µM

Biological target: T8, HLA-DR4 molecule (DRB1*0401) (human)
Assay: competition ELISA vs biotin-HA 306-318

Binder | IC50
LDLQPETTDLYCYEQ (modifications not checked) [E7 13-27] | 4.25 µM
TLHEYMLDLQPETTDLYCYEQ (modifications not checked) [E7(7-27)] | 0.06 µM
QQYNKPLCDLLIRCI (modifications not checked) [E6 97-111] | 0.325 µM
DLYCYEQLNDSSEEEDEIDG (modifications not checked) [E7(21-40)] | 1.75 µM
PTLHEYMLDLQPETT (modifications not checked) [E7 6-20] | 0.175 µM
SLYGTTLEQQYNKPL (modifications not checked) [E6 89-103] | 5 µM
DLLIRCINCQKPLCPEEKQRHL (modifications not checked) [E6(105-126)] | 3.75 µM
LRLCVQSTHVDIRTLEDLLMGTL (modifications not checked) [E7(65-87)] | 0.65 µM
LCVQSTHVDIRTLED (modifications not checked) [E7 67-81] | 7.5 µM

Biological target: T9, HLA-DRB5*0101 molecule (human)
Assay: competition ELISA vs biotin-HA 306-318

Binder | IC50
RTLEDLLMGTLGIVC (modifications not checked) [E7 77-91] | 0.7 µM
QQYNKPLCDLLIRCI (modifications not checked) [E6 97-111] | 5.5 µM
LRREVYDFAFRDLCIVYRDGNPY (modifications not checked) [E6(45-67)] | 0.065 µM
SLYGTTLEQQYNKPL (modifications not checked) [E6 89-103] | 0.2 µM
KCDSTLRLCVQSTHV (modifications not checked) [E7(60-74)] | 0.2 µM
EKQRHLDKKQRFHNIRGRWT (modifications not checked) [E6(121-140)] | 0.085 µM
RHYCYSLYGTTLEQQ (modifications not checked) [E6 84-98] | 0.9 µM
TTLEQQYNKPLCDLL (modifications not checked) [E6 93-107] | 0.325 µM
DLLIRCINCQKPLCPEEKQRHL (modifications not checked) [E6(105-126)] | 0.03 µM
FYSKISEYRHYCYSL (modifications not checked) [E6 76-90] | 1.05 µM
MGTLGIVCPICSQKP (modifications not checked) [E7 84-98] | 0.09 µM
QRFHNIRGRWTGRCM (modifications not checked) [E6 130-144] | 0.075 µM
HLDKKQRFHNIRGR (modifications not checked) [E6 124-138] | 0.075 µM
SEYRHYCYSLYGTTL (modifications not checked) [E6 81-95] | 2.5 µM

Biological target: T10, HLA-DRB3*0101 molecule (human)
Assay: competition ELISA vs biotin-Lol 191-210

Binder | IC50
TLHEYMLDLQPETTDLYCYEQ (modifications not checked) [E7(7-27)] | 0.0085 µM
PTLHEYMLDLQPETT (modifications not checked) [E7 6-20] | 0.09 µM
LRREVYDFAFRDLCIVYRDGNPY (modifications not checked) [E6(45-67)] | 2.5 µM
LRLCVQSTHVDIRTLEDLLMGTL (modifications not checked) [E7(65-87)] | 0.85 µM
MHGDTPTLHEYMLDLQPETT (modifications not checked) [E7(1-20)] | 0.035 µM
ERPRKLPQLCTELQTTIHDII (modifications not checked) [E6(14-34)] | 1.45 µM
